Changes are numbered by the printed parent chain. Names may count otherwise.
B1: phospho-mimetic tbWag31-T73E (DivIVA/Wag31 from M. tuberculosis, Rv2145c) (natural protein)
chain: MPLTPADVHNVAFSKPPIGKRGYNEDEVDAFLDLVENELTRLIEENSDLRQRINELDQELAAGGGAGVTPQAEQAIPAYEPEPGKPAPAAVSAGMNEEQALKAARVLSLAQDTADRLTNTAKAESDKMLADARANAEQILGEARHTADATVAEARQRADAMLADAQSRSEAQLRQAQEKADALQADAERKHSEIMGTINQQRAVLEGRLEQLRTFEREYRTRLKTYLESQLEELGQRGSAAPVDSNADAGGFDQFNRGKN
B2: phospho-ablative tbWag31-T73A (DivIVA/Wag31 from M. tuberculosis, Rv2145c) (natural protein)
chain: B1 chain with E73A

Target: the molecule itself
Test: small angle X-ray scattering

Protein	binding result
B1	binds
B2	binds

— doi:10.1101/394452 (bioRxiv, 2018)
